Assay results taken from US20100136018A1 (Ablynx, published 2010).

biological target: T1, ectodomain of human pIgR (R&D Systems Cat #2717-PG) (human, UniProt P01833 19-638); assay: designation in the sequence table; clones from phage selection and ELISA screening on pIgR ectodomain
T1 construct: extracellular domain; Bought protein, immobilised on Maxisorp plates; also called pIgR ectodomain
T1 sequence (P01833 19-638): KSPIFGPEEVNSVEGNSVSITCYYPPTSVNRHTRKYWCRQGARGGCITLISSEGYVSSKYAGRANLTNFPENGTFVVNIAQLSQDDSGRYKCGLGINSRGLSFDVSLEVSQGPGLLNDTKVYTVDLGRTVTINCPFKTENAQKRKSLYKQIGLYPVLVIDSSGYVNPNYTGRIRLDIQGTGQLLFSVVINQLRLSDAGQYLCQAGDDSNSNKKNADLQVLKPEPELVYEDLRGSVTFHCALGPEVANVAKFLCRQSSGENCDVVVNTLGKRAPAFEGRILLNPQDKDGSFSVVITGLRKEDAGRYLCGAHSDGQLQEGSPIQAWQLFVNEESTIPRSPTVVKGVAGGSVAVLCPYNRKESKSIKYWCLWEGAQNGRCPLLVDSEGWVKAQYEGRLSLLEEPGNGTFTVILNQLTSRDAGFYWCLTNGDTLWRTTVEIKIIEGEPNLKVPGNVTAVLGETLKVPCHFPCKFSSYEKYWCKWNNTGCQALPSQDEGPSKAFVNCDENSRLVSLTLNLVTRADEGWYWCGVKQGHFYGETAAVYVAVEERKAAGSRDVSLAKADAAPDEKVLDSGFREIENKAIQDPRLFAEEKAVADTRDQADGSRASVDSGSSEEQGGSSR

Row | binding result | Binder
1 | binds | 1 E2 (VHH, Nanobody against pIgR) VHH: EVQLVESGGGLVQAGGSLRLSCVASGFILREYNMGWFRQAPGKEREIVAAIAWTGTNSYYVDSVKGRFTISRDDTKNTVYLQMNSLNPEDTGVYHCAAEGYVSNFPRSSADEYDYWGQGTQVTVSS
2 | binds | 1C7 (VHH, Nanobody against pIgR) VHH: EVQLVESGGGLVQPGGSLRLSCAASGFAFSRYGMYWVRQAPGKGLEWVSTINSGGDYIIYADSVKGRFTISRDNAKNTLYLQMNSLKPEDTAVYYCAEGYRGSEWPPPAFTLQRADFASWGQGTQVTVSS
3 | binds | 4 E9 (VHH, Nanobody against pIgR) VHH: EVQLVESGGGLVQAGGSLRLSCAASGSILSTNDMGWYRQAPGNQRELVARISRGSSTIYTESVKGRFTISRDNAKNTVYLQMNSLKPEDTAVYYCNADMLPSDLSHGYYYRDYWGQGTQVTVSS
4 | binds | 2_d2 (VHH, Nanobody against pIgR) VHH: EVQLVESGGGQVQAGGSLRLSCVASERTFSYYDLAARAWFRQAPGKERELVSASTWNGGYTYYVDSVKGRFTVSTDDAGDTMYLQMNSLEPEDTAVYYCAARRAYSSDLHDYRTFDYWGQGTQVTVSS
5 | binds | 1C2 (VHH, Nanobody against pIgR) VHH: EVQLVESGGGLAQPGGSLRLSCAASGFAFSSYWMYWVRQAPGKGLEWVSAISTGGGGTYYADSVKGRFTISRDNAKNTLYLQMNSLKPEDTARYYCARDEAPTFDYSGNYAYTGSDPNDYWGQGTQVTVSS
6 | binds | 2_f3 (VHH, Nanobody against pIgR) VHH: EVQLVESGGGLVQAGGSLRLSCAASGRTFTIYTMGWFRQAPGKAREFISALRWSGGSTYTFYADSVKGRFTISRDNAKNTLYLQMNSLKSEDTAIYYCGMVDPRAPYMRPDSTDSYAYWGQGTQVTVSS
7 | binds | 1B7 (VHH, Nanobody against pIgR) VHH: EVQLVESGGGLVQAGGSLRLSCAASGFTFDDYAIGWFRQAPGKEREWVSCISRSDGSTYYADSVKGRFTISSDNAKNTVYLQMNSLKPEDTAVYHCAADAIGSFPCPAGVYDYWGQGTQVTVSS
8 | binds | 4G11 (VHH, Nanobody against pIgR) VHH: EVQLVESGGGLVQAGGSLRLSCAASGFTFDDYAIGWFRQAPGKEREGVSCISSRDGMTYYADSVKGRFTISSDNARNTVYLQMNSLKPEDTAVYYCAADLVGSFPCPVAAYDYWGQGTQVTVSS
9 | binds | 4_e11 (VHH, Nanobody against pIgR) VHH: EVQLVESGGGLVQAGGSLRLSCAASGFTFDDYAIGWFRQAPGKEREGVSCINNSDGSTYYADSVKGRFTISSDNAKNTVYLQMNSLKPEDTAVYYCAADFVGGSYCLFPTYNYWGQGTQVTVSS
10 | binds | 4C11 (VHH, Nanobody against pIgR) VHH: EVQLVESGGGLVQPGGSLRLSCAASGFTFSSYAMTWVRQGLGKGLEWVSIISGNGGSTSYADSVKGRFTISRDNAKNTLYLQMNSLKPEDTAVYYCAKWDGLGTLPGSQGTQVTVSS

biological target: T2, ectodomain of human FcgR1 (R&D Systems Cat #1257-FC) (human, UniProt P12314 16-292); assay: designation in the sequence table; clones from phage selection and ELISA screening on FcgR1 ectodomain
T2 construct: extracellular domain; Bought protein, immobilised on Maxisorp plates; also called FcgR1 ectodomain; Fc gamma R1
T2 sequence (P12314 16-292): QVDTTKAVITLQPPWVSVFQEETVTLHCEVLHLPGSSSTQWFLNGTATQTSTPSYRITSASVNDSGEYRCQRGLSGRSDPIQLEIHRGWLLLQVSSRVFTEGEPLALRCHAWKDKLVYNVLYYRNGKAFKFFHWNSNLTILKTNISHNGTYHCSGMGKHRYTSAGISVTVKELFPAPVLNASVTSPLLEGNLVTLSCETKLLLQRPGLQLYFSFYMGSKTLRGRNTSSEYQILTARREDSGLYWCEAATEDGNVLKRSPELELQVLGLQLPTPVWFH

Row | binding result | Binder
11 | binds | 48D11 (VHH, Nanobody against FcgR1) VHH: EVQLVESGGGLVQAGDSLTLSCVASGRTFSNYGMGWFRQAPGKEREFVASINWGDGNTYYANSVKDRFAISKDHAKNTVYLQMNSLKPEDTALYYCAAVSSNTEIFDTWGQGIQVTVSS
12 | binds | 49F4 (VHH, Nanobody against FcgR1) VHH: EVQLVESGGGLVQAGDSLTLSCVASGRTFSANGMGWFRQAPGKEREFVASIAWGDGNTYYANSVKDRFAISKDHAKNTVYLQMNSLKPEDTALYYCAAVSSNSETFDTWGQGIQVTVSS
13 | binds | 49 E10 (VHH, Nanobody against FcgR1) VHH: EVQLVESVGGLVQTGGSLRLSCVASGRTFVSGGMGWFRQAPGKEREFVAAIVWIGGRTYYADSVKGRFTISGDNAKSTVTLQMNSLKPEDTALYYCADGDLATGTYDYWGQGTQVTVSS

biological target: T1, ectodomain of human pIgR (R&D Systems …); assay: ELISA, pIgR ectodomain coated at 5 ug/ml, 10 ul periplasmic extract in 100 ul, anti-myc detection
Experimental: (§1) In short, 5 ug/ml pIgR ectodomain was immobilized on Maxisorp microtiter plates (Nunc) and free binding sites were blocked using 4% Marvel in PBS. Next, 10 ul of periplasmic extract containing Nanobody of the different clones in 100 ul 2% Marvel PBST were allowed to bind to the immobilized antigen. […] Binding specificity was determined based on OD values compared to controls having received no Nanobody (low control).

Row | binding result | Binder
14 | binds | 4_h1 (VHH, Nanobody against pIgR) VHH: EVQLVKSGGGLVQAGDSLRLSCAASGRTSSSVTMGWFRQAPGKERDFVAAISWSGGSTYYADSVKGRFTISRDNAKNTVYLQMNSLKPEDTAVYYCAAVVPSDPIIYYTDYVDYDYWGQGTQVTVSS
15 | binds | 4_g6 (VHH, Nanobody against pIgR) VHH: EVQLVESGGGLVQAGGSLRLSCAASGFTFDDYAIGWFRQAPGKEREGVSCISSRDGTTYYADSVKGRFTISSDNAKNTVYLQMNSLKPEDTAVYYCAADLVGSFPCPVAAYDYWGQGTQVTVSS
16 | binds | 1_g10 (VHH, Nanobody against pIgR) VHH: EVQLVESGGGLVQAGDSLRLSCAASGRTFSTYAMAWFRQAPGKDREFVAAISWSSDMTYYLDSVKGRFTISRDNAKNTVFLQMNSLKPEDTAVYYCASGAYYAGSSTSPYNYWGQGTQVTVSS
17 | binds | 4_a7 (VHH, Nanobody against pIgR) VHH: EVQLVESGGGLVQAGGSLRLSCEDSGRTFGDYIMGWFRQAPGKERDFVAAISWTGDSTYYKYYSDSAKGRFTASRDNAKNTAYLQMNGLKPEDTAVYYCAARTFRIDYDPRTASTYNYWGQGIQVTVSS

biological target: T2, ectodomain of human FcgR1 (R&D Systems …); assay: ELISA, FcgR1 ectodomain coated at 3 ug/ml, 10 ul periplasmic extract in 100 ul, anti-myc detection
Experimental: as §1, with “3” for “5”, “FcgR1” for “pIgR”

Row | binding result | Binder
18 | binds | 48D6 (VHH, Nanobody against FcgR1) VHH: EVQLVESGGGLVQAGDSLTLSCVASGRTFSAYGMGWFRQAPGKEREFVASINWGGGNTYYANSVKDRFAISKDHAKNTVYLQMNSLKPEDTALYYCAAVSSNTEIFDTWGQGIQVTVSS
19 | binds | 49F9 (VHH, Nanobody against FcgR1) VHH: EVQLVESGGGLVQAGDSLTLSCVASGRTFNNYGMGWFRQAPGKEREFVASINWGNGKTYYANPVKDRFAISKDHAKNTVYLQMNSLKPEDTALYYCAAVSSNTETFDTWGQGIQVTVSS
20 | binds | 49 E4 (VHH, Nanobody against FcgR1) VHH: EVQLVESGGGLVQAGDSLTLSCVASGRTFNNYGMGWFRQAPGKEREFVASINWGNGKTYYANSVKDRFAISKDHAKNTVYLQMNSLKPEDTALYYCAAVSSNTETFDTWGQGIQVTVSS
21 | binds | 49D4 (VHH, Nanobody against FcgR1) VHH: EVQLVESGGGLVQAGDSLTLSCVASGRRFSAYGMGWFRQAPGKEREFVASINWGDGNTYYANSVKDRFAISKDHAKNTVYLQMNSLKPEDTALYYCAAVSSNTEIFDTWGQGIQVTVSS
22 | binds | 49C5 (VHH, Nanobody against FcgR1) VHH: EVQLVESGGGLVQAGGSLGLSCVASGRTFVSGGMGWFRQAPGKEREFVASIVWIGGRTYYADSVKGRFTISGDNAKSTVTLQMNSLKPEDTATYYCADGDLATGTYDYWGQGTQVTVSS

biological target: T1, ectodomain of human pIgR (R&D Systems …); assay: competition ELISA, pIgR ectodomain coated at 5 ug/ml, 1 ug/ml IgA preincubated with purified Nanobody at 1600, 200, 25 and 3.3 nM, bound IgA detected with anti-IgA; blocked ligand IgA

Row | IC50 (read off the curve) [nM] | Binder
23 | ~80 | 1D7 (VHH, Nanobody against pIgR) VHH: EVQLVESGGGLVQSGGSLRLSCAASGRAFNYYAMGWFRQAPGKERELVAVINWSGGTTSYADSVKGRFTISRSNAKNTVYLQMSSLKPEDTAVYYCAADSIYRTSKDYNYWGQGTQVTVSS
